These results are taken from paper PMC7899134 (Cell, 2021).

To fix the notation:
T1: IL-23 (IL-23p19/p40), crystallography construct (human, UniProt Q9NPF7 20-189; P29460 23-328)
T1 sequence (looked up) 1: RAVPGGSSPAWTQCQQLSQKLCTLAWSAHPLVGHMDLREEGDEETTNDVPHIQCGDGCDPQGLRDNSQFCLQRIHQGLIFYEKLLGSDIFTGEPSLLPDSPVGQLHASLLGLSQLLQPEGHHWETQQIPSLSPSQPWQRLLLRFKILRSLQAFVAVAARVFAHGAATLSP
T1 sequence (looked up) 2: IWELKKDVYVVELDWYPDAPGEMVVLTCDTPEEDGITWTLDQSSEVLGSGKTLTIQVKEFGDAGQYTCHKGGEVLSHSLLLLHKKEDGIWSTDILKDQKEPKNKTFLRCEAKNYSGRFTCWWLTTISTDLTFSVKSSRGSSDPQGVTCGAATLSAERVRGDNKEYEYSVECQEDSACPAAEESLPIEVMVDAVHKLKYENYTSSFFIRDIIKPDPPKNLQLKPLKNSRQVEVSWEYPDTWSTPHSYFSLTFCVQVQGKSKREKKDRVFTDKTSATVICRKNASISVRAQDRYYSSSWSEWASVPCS

T2: human IL-23R (1–309) (human, UniProt Q5VWK5-1 24-309)
T2 sequence (looked up): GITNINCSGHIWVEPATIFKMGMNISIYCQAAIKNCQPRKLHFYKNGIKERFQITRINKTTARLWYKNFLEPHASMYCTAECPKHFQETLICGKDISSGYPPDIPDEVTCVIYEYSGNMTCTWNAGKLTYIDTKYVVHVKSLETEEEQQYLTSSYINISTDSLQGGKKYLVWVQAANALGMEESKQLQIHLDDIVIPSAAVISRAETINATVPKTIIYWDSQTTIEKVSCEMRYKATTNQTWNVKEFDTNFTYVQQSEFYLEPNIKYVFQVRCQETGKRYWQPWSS

B1: human IL-23p19 (20-189), crystallography construct (natural protein, UniProt Q9NPF7 20-189, looked up)
chain: T1 sequence (looked up) 1
B2: human IL-23R (1–315), crystallography construct (domain or fragment, UniProt Q5VWK5-1 24-315, looked up)
chain: GITNINCSGHIWVEPATIFKMGMNISIYCQAAIKNCQPRKLHFYKNGIKERFQITRINKTTARLWYKNFLEPHASMYCTAECPKHFQETLICGKDISSGYPPDIPDEVTCVIYEYSGNMTCTWNAGKLTYIDTKYVVHVKSLETEEEQQYLTSSYINISTDSLQGGKKYLVWVQAANALGMEESKQLQIHLDDIVIPSAAVISRAETINATVPKTIIYWDSQTTIEKVSCEMRYKATTNQTWNVKEFDTNFTYVQQSEFYLEPNIKYVFQVRCQETGKRYWQPWSSLFFHKT
B3: IL-23 (IL-23p19 and p40), biotinylated, SPR construct (complex)
chain 1: PAWTQCQQLSQKLCTLAWSAHPLVGHMDLREEGDEETTNDVPHIQCGDGCDPQGLRDNSQFCLQRIHQGLIFYEKLLGSDIFTGEPSLLPDSPVGQLHASLLGLSQLLQPEGHHWETQQIPSLSPSQPWQRLLLRFKILRSLQAFVAVAARVFAHGAATLSP
chain 2: T1 sequence (looked up) 2
modifications: biotin on the AviTag (BirA ligase)
B4: human IL-23p19 (28–189), T. ni expressed (natural protein, UniProt Q9NPF7 28-189, looked up)
chain: B3 chain 1
B5: IL-23 (IL-23p19 28–189 / p40 23–328 with BirA substrate peptide), T. ni expressed (complex, human)
chain 1: B3 chain 1
chain 2: T1 sequence (looked up) 2
modifications: biotinylated in vitro for the yeast staining
B6: human p40 (23–328) with BirA substrate peptide, T. ni expressed (natural protein, UniProt P29460 23-328, looked up)
chain: T1 sequence (looked up) 2
B7: human p40 (23–328) alone, biotinylated, SPR construct (natural protein, UniProt P29460 23-328, looked up)
chain: T1 sequence (looked up) 2
modifications: biotin on the AviTag (BirA ligase)
B8: human p40 (23-328), crystallography construct (natural protein)
chain: T1 sequence (looked up) 2

In experiment [1] the target is B2. Kind of experiment: crystal structure.
In experiment [2] the target is B8. Kind of experiment: crystal structure.
Experiment [3] deals with T1, IL-23 (IL-23p19/p40), crystallography …. The experiment can be described thus: crystal structure.
For experiment [4], the target named is T3, human IL-12Rβ1 D1–D2 (25–239) (human, UniProt P42701 25-239). Kind of experiment: SPR.
Another experiment has as its target T2, human IL-23R (1–309). Kind of experiment: cryo-EM structure.
Experiment [5] deals with affi-IL-12Rβ1 D1–D5 (25–542) Tyr109Ser Gln132Leu (human, UniProt P42701 25-542, Tyr109Ser | Gln132Leu). Kind of experiment: cryo-EM structure.
The target of experiment [6] is affi-IL-12Rβ1 D1–D2 (25–239) Tyr109Ser Gln132Leu (human, UniProt P42701 25-239, Tyr109Ser | Gln132Leu). Kind of experiment: SPR.
Experiment [7] has as its target T3, human IL-12Rβ1 D1–D2 (25–239). The experiment can be described thus: crystal structure.

In the case of B1, in experiment [1], the binding result was “binds”.

Consider B2, for which the binding result in experiment [2] and in experiment [3] was “binds” throughout.

Consider B3, for which the binding result in experiment [4] was “binds”.

With B4, the binding result with human IL-23R (1–309) was “binds”.

In the case of B5, the binding result in experiment [5] is “binds”.

For the molecule B6, in experiment [5], the binding result is recorded as “binds”.

In the case of B7, the binding result in experiment [6] and in experiment [4] was “binds” in each case.

For the molecule B8, the binding result in experiment [7] is “binds”.
